Reference: patent US20230365647A1 (published 2023)

T1: Mannose receptor C type 1 on human monocyte-derived dendritic cells (Homo sapiens, UniProt P22897 19-1456)
T1 construct: also called MRC-1
T1 sequence: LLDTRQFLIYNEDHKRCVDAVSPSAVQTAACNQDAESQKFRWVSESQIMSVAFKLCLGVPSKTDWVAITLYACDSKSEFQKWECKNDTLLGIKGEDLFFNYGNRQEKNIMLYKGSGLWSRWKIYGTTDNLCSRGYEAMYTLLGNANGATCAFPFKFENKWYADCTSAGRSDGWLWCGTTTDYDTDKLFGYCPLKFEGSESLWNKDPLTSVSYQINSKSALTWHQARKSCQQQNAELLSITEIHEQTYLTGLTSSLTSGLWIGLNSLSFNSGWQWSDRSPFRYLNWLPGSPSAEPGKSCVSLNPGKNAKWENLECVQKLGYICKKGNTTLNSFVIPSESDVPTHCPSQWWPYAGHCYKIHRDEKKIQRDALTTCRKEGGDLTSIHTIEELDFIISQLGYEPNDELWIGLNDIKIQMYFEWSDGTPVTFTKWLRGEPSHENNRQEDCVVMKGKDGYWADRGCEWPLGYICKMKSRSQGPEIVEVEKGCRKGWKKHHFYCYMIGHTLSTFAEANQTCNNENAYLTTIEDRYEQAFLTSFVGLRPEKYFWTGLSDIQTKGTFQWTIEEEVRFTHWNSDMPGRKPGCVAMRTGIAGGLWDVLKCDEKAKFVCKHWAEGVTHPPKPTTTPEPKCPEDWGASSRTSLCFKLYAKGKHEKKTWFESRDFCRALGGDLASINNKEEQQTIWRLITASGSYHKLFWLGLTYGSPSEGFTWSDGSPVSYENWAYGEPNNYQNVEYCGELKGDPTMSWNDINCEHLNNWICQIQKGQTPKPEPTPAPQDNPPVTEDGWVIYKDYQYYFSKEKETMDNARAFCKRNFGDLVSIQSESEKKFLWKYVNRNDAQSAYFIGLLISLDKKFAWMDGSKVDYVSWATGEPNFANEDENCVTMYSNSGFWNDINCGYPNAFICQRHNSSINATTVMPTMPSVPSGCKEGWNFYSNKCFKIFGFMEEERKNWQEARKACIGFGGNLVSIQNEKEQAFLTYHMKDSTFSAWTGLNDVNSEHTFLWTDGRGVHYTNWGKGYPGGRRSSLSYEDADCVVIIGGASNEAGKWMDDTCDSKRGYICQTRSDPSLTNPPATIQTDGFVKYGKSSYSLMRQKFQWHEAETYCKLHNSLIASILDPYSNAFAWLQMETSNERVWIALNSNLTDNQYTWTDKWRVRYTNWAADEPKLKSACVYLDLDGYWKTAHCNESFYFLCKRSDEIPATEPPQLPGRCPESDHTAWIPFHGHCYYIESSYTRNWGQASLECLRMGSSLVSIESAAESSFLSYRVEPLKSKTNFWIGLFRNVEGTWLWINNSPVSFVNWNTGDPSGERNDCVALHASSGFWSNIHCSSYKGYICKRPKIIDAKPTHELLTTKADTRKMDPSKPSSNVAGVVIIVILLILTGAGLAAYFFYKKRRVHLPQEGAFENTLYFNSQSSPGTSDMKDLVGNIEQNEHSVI

B1: Pneumolysin (purified recombinant) (other)
chain: ANKAVNDFILAMNYDKKKLLTHQGESIENRFIKEGNQLPDEFVVIERKKRSLSTNTSDISVTATNDSRLYPGALLVVDETLLENNPTLLAVDRAPMTYSIDLPGLASSDSFLQVEDPSNSSVRGAVNDLLAKWHQDYGQVNNVPARMQYEKITAHSMEQLKVKFGSDFEKTGNSLDIDFNSVHSGEKQIQIVNFKQIYYTVSVDAVKNPGDVFQDTVTVEDLKQRGISAERPLVYISSVAYGRQVYLKLETTSKSDEVEAAFEALIKGVKVAPQTEWKQILDNTEVKAVILGGDPSSGARVVTGKVDMVEDLIQEGSRFTADHPGLPISYTTSFLRDNVVATFQNSTDYVETKVTAYRNGDLLLDHSGAYVAQYYITWNELSYDHQGKEVLTPKAWDRNGQDLTAHFTTSIPLKGNVRNLSVKIRECTGLAWEWWRTVYEKTDLPLVRKRTISIWGTTLYPQVEDKVEND
notes: also called PLY; Ply
B2: LLO (W489F) toxoid (other)
chain: KDASAFNKENSISSMAPPASPPASPKTPIEKKHADEIDKYIQGLDYNKNNVLVYHGDAVTNVPPRKGYKDGNEYIVVEKKKKSINQNNADIQVVNAISSLTYPGALVKANSELVENQPDVLPVKRDSLTLSIDLPGMTNQDNKIVVKNATKSNVNNAVNTLVERWNEKYAQAYPNVSAKIDYDDEMAYSESQLIAKFGTAFKAVNNSLNVNFGAISEGKMQEEVISFKQIYYNVNVNEPTRPSRFFGKAVTKEQLQALGVNAENPPAYISSVAYGRQVYLKLSTNSHSTKVKAAFDAAVSGKSVSGDVELTNIIKNSSFKAVIYGGSAKDEVQIIDGNLGDLRDILKKGATFNRETPGVPIAYTTNFLKDNELAVIKNNSEYIETTSKAYTDGKINIDHSGGYVAQFNISWDEINYDPEGNEIVQHKNWSENNKSKLAHFTSSIYLPGNARNINVYAKECTGLAFEWWRTVIDDRNLPLVKNRNISIWGTTLYPKYSNSVDNPIE

Biological target: T1, Mannose receptor C type 1 on human …
Test: immunofluorescence co-localization in human DCs

Binder	binding result
B1	binds
B2	no binding (tested: 0.2 µg/ml)
